Assay results taken from IntAct's records for PubMed 12354775.

B1: Protein naked cuticle (Drosophila melanogaster (Fruit fly)), Q9VVV9 (parent)
chain: MAGNIVKWWKHKILGGYKQFSVQECTTDSEELMYHQVRASSSCSAPPDLLLVSERDNNIQLRSPVVNIITTPPGNASGAGSKQQSHHQTNHHSSGRSHPGHTAHPQDVSSGGSHSKHLRISSTSNGKHGKYSNMQQQLPQDEDVVDAAATMQQQQHTGHAHSRHLHHHKEERIRLEEFTCDVSVEGGKSSQPLQFSFTFYDLDGHHGKITKDDIVGIVYTIYESIGKSVVVPHCGSKTINVRLTVSPEGKSKSQPVVPVPVAAGFSSSHASKLKKLPTGLAAMSKPLAGGGVGSGGASALTTSAGNRRQHRYRPRKLIKSDDEDDDSNSEKEKDAAHAPAADQPSGSGTKATGKSHHHQSQSARYHQKNNSRAEQCCTEQNTPDNGHNTYENMLNLKCCKPEVDQVDCPSHRQHHQSHPNHQMRQQDIYMKQATQRVKMLRRARKQKYQDHCLETRQRSLSVGNDSACPNRHLQLQQPPVGHPQPQSLNHKSASGSPPLGVGGGGDMMLDGVQLRQPRPHSLTPHQHQQQNQQQQQQQRKSAECWKSALNRNDLISIIRESMEKNRLCFQLNGKPQANVSPIRQPAAQQQPQQQQRQRCNTGSKIPTLITNHSPVAQQSPLSCSPPTAEPTTPSIPAAPPAIEVNGQQHHPTHPTHPSHHNHHEHPQPHIPIYHQQLAINPAVLAAQQTHNTAHNKLNLCGYDSFLHATICGGGAAAHSPPATPSNVATVQPIPKKSQKNLLQGYQRLEQSQQQQQQQRSSKDYKNYGNLIYAKLSEQLQQKDREQRRQRHKQQQHQMLQDQPKDASRSEQRPPTSNSSSAGSKIYGDAVECAHLLASEEEDLPPSPQLTSTPSKVVSTDTLIDLNDDVGEAVAEAVTEGGKQSLEAEESGQQVEVELDTSASSSMIHRYVHEHIHHHYHHFKEQQDV

Variants of: B1
Conditions: with dsh_drome dsh

| Variant | effect of a mutation on the interaction |
| --- | --- |
| D213V | decreasing interaction |
| D201A | decreasing interaction |
